According to the supplement of paper PMC12764529:
± gives the half width of the 95% confidence interval.

Test: folding stability dG unfold (combined trypsin and chymotrypsin); higher = more stable
Method in brief: (§1)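 Unfolding free energy was derived, per protease or combined, by relating Bayesian-fitted K50 values from sequencing counts to a sequence-predicted unfolded-state K50 and a shared folded-state K50. The underlying digests exposed cysteine-free mini-proteins under 80 residues, in a PA-tagged cDNA display construct, to trypsin and chymotrypsin at 11 threefold-diluted concentrations and to a no-protease condition. A filter kept only designs with AlphaFold2 dimer inter-PAE above 15.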

Row | Sequence | folding stability dG unfold [kcal/mol]
1 | SAKFRVTEIHPNGNNFEIRIERYDPNGEKKKLPIPVNADNMQIDEVDGDKITIYFPNNGREITLPLEDLSAG [r14_947_TrROS] | -0.152 ± 0.36
2 | SAGGSAGGGPDPSLPPPEVIEVVLPPDTLFRPPGGGYLSPEEVVELAKELEEREGIKATVTIRPSAGGSAGG [r6_162_JUSTAS] | 0.823 ± 0.15
3 | SAGNIKIEDIEPNDDYYTLVIKAPENGRTIMIQYNPNNNRIPIMIFPPGGVRTIPIPMNDIEDFLKEILSAG [r5_769_TrROS] | 0.893 ± 0.22
4 | SAGGSAGGSPKPIPIKIDEVWPNPDNGKDYIVKIEFPDGKKHTFTSPEDIRKLPGFDVEVYELSAGGSAGGS [r20_192_TrROS] | 0.621 ± 0.2
5 | SAGMETVTVEVDGATITFVKNEDGTVTAIVTYPNGEVEIYNADGELIRRERLPNGLVVFEFTKEELEKLSAG [r5_457_TrROS_Hall] | 1.93 ± 0.14
6 | SAGGSAGGSAGGKVVKFTRPDGKPVDAKKILSYDPDKPKLYVLVEDEGPVELREVDADKDSAGGSAGGSAGG [r7_236_TrMRF] | 0.161 ± 0.23
7 | SAGGSASNIKTEEKEYPDGKVVVKYSSDPNITYVYYYPPGGLELVETLDSNGNVISKKLVPKGKLISAGGSA [r15_419_JUSTAS] | 0.832 ± 0.06
8 | SAGGSAGGSAGGSFKIKDIEVNPDALKKGNFIQIRIENGWVIHINPNGEIEVVELPPDASAGGSAGGSAGGS [r4_373_TrROS] | 1.25 ± 0.095
9 | SAGGSAGGSAMSVVVKYTVLLTDPVTGKTTVVPVTATLPVSDGTAKTIEEIVAEHPNYEILESAGGSAGGSA [r18_267_JUSTAS] | 1.56 ± 0.039
10 | SAGGSAGGSAGGSPNWVWILITVKITFPIYKYDPDGKPLEPIEITIEFTVLIRIPPGDFSAGGSAGGSAGGS [r4_425_TrROS] | 5.15 ± 0.27
11 | SAMKIEIIEEKEGEIIIKIEATKEEVEELAEELKKKFPGVEVEVEYDKETKKVYIRIKFKKKPSEEELKSAG [r14_600_TrROS_Hall] | 3.82 ± 0.31
12 | SAGGSAGGSAPPDEGQKWVPVTFPIEFPLPDGNKVKIPIDFWYPKEDGKPIAMQIEWWAKNSAGGSAGGSAG [r3_484_TrROS] | 0.72 ± 0.26
13 | SAGGDPVRIFIMSGNGIFPIEIPLDPGEKVEFEMKFNGQEVTITITPGDGEIEIEMPPGFNIMALEPSAGGS [r16_761_TrROS] | 1.89 ± 0.11
14 | SAGGSKLKNLKSKPFPITFENGGKVTLNVVNIPKSSKPVVNITVIEPNSGKKKTFTVPLEEAKNLLSAGGSA [r2_366_TrMRF] | 0.869 ± 0.089
15 | SAGGSAGGSAGPLKIKKLELRKLPDGFVEMTAEFEGPENYTVRLIVRKDDPNKLVLEVFPSAGGSAGGSAGG [r11_618_TrROS_Hall] | 2.69 ± 0.16
16 | SAGGSAGGSAGGPLPGKPPLRLKLFTLTVRTRTYRKTEDGTWEEVEESEAEITVLVLEPVSAGGSAGGSAGG [r7_506_TrROS_Hall] | 4.71 ± 0.14
17 | SAGGSAGGSKPIVAPVSVEDLTLEGLKALVDSHPEGEVPIFVTRSDGKPLVITVLPDGELSLDSAGGSAGGS [r12_1054_TrMRF] | -0.318 ± 0.076
18 | SAGGSAPRIRVHFWNPNTGQWHHIPVERLKKAIDKNPPGEELEFPIPGYPVKVQVEPDDGTIWIRMSAGGSA [r15_350_TrROS] | 1.19 ± 0.16
19 | SAGGSGRQMVRNIVRHALDQQQQHGKPIDKIYIFGPPNMRKEIKKELEEEGLPPGVKITIVPAEDMQSAGGS [r16_164_TrROS] | 0.326 ± 0.37
20 | PPPDVPVETETKTSTSTLPDGSRLTTTTTTTRAPNGYYYDTTSVTTTVAPDGTVTTTSTSTTKGPLPAALLS [r1_129_JUSTAS] | 1.5 ± 0.27
21 | SAGGSAGGKPKKVKIKIEITYNKETGVVKIKIEVEVDGKTYTIEIEVKLKPGQTIEELLKKLLESAGGSAGG [r6_20_TrROS_Hall] | 4.46 ± 0.54

Test: folding stability dG unfold from trypsin proteolysis; higher = more stable
Method in brief: as §1

Row | Sequence | folding stability dG unfold [kcal/mol]
22 | SKTYLVKVTIEYGGKTIEIEVEVETLEEALAAVRAALPPEERAQLPPDAKVTVEVYELPEVDEETGELLESA [r9_111_TrROS_Hall] | 2.83 ± 0.07
23 | SMTIELTVPSPEELLAALKALADAGIKGAKIRITVTNPDGEEQEIEVDSIEDLEALIESGPVTVRVEIEPSA [r9_589_TrROS_Hall] | 3.56 ± 0.13
24 | SAGGSAMTVEELKELFPGYPITEITDFQPVDGWYTLSIKYPNNGKKRQINVEGMPPELAKEIMELISAGGSA [r15_830_TrROS] | 0.161 ± 0.036
25 | SMPPLGEETTLLETIELPEKLTVEIRRVTLPNGVPLIEVSKTDPSGNTTPIFRAPGNDPAALAAARAALASA [r9_1069_JUSTAS] | 0.438 ± 0.078
26 | SAGNAKEIAKKIKIRIREFFAERFGFPDVEIDSVTIKDVDPKNGRVRVNITWWWPNGRPWKHEIEIPVDSAG [r5_20_TrROS] | 2.38 ± 0.048
27 | SAGGSAGGSTIMFKVDSPDELIDKIKIPPGFRVEIMQTPDRYYVMIRPPPSPEQMAKREKNNGSAGGSAGGS [r12_274_TrROS] | 3.35 ± 0.42
28 | SAGGSAGGSAGMKNKNYKVYTYKINIIDPGYENTTIIVEPNPAKPKAKPITIPIIIVEPASAGGSAGGSAGG [r11_257_TrMRF] | 0.57 ± 0.083
29 | SMKPGETVRVTFKTKDGSKIEIEFKNGKPVRITVYNKNGEKVKEIEVTLDELKELAEKLGIEEIVEVEKVSA [r9_1107_TrROS_Hall] | 2.76 ± 0.19
30 | SAGGAEVDPETKVVHIRIRARSAEELLAAIEALPADEVIIEVYNEETGKTERIRLSREELRKLLEEASAGGS [r16_797_TrROS_Hall] | 1.92 ± 0.021
31 | SAGGMVITIPTTTSSIEEAIEAVKKKVEEEGYKVTEIKDIKVSTDPKTGKINVTATVIVEKLPKEEKSAGGS [r16_155_JUSTAS] | 0.99 ± 0.057
